Here are results for 1 substance from PMC3552336.

The target in the assay is HA-p68 (wild type) (UniProt P17844).
UniProt P17844, sequence (P17844 whole entry): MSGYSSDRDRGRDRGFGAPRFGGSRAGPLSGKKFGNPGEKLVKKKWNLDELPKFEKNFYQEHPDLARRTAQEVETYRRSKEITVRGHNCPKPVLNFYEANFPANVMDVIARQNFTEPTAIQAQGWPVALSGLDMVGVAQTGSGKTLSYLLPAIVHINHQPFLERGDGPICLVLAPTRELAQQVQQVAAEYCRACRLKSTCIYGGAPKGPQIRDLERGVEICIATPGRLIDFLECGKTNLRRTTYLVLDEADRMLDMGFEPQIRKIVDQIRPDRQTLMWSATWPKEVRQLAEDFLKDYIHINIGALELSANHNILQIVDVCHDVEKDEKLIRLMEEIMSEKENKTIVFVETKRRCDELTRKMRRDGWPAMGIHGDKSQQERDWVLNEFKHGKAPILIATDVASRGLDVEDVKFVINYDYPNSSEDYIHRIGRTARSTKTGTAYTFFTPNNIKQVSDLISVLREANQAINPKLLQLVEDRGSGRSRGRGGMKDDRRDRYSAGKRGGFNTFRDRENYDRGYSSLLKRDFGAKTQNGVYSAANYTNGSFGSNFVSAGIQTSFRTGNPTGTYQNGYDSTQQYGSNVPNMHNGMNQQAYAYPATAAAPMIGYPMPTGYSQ

On to “Rhodamine labeled microtubule (from UniProt P02550;P02554) (complex)”, for which the microtubule gliding assay, p68/Ca^2+-CaM (ATP): % of gliding microtubules (n=50) was determined as 74.2%; the microtubule gliding assay, p68/Ca^2+-CaM (ATP): maximum gliding speed was 0.52 µm/min; the microtubule gliding assay, p68/Ca^2+-CaM (ATP): mean gliding speed stood at 0.16 µm/min.
